Measurements from the Immune Epitope Database (IEDB).

Tests used:
[1] = target: HLA-B*58:01; experiment: IEDB peptide-MHC binding, purified MHC/direct/fluorescence; filed as Kd, often an IC50 or EC50 that approximates it; ≥ and ≤ were set here for values at or beyond the usual limits of such assays
[2] = target: HLA-B*27:05; experiment: as above
[3] = target: HLA-B*08:01; experiment: as above
[4] = target: HLA-B*44:02; experiment: as above
[5] = target: HLA-A*26:01; experiment: as above
[6] = target: HLA-A*02:01; experiment: as above
[7] = target: HLA-B*40:01; experiment: as above
[8] = target: HLA-A*31:01; experiment: as above
[9] = target: HLA-B*15:01; experiment: as above; conditions: source organism: Influenza A virus (A/Puerto Rico/8/34/Mount Sinai(H1N1))
[10] = target: HLA-A*69:01; experiment: as above
[11] = target: HLA-B*07:02; experiment: as above
[12] = target: HLA-A*01:01; experiment: as above
[13] = target: HLA-A*24:02; experiment: as above
[14] = target: HLA-B*46:01; experiment: as above
[15] = target: HLA-A*03:01; experiment: as above
[16] = target: HLA-B*07:02; experiment: IEDB peptide-MHC binding, purified MHC/competitive/fluorescence; filed as Kd, often an IC50 or EC50 that approximates it; ≥ and ≤ were set here for values at or beyond the usual limits of such assays
[17] = target: HLA-A*24:02; experiment: IEDB peptide-MHC binding, purified MHC/competitive/fluorescence; ≥ and ≤ were set here for values at or beyond the usual limits of such assays; conditions: source organism: Zaire ebolavirus
[18] = target: HLA-A*03:01; experiment: as above
[19] = target: HLA-A*02:01; experiment: as above; conditions: source organism: Zaire ebolavirus
[20] = target: HLA-A*11:01; experiment: as above
[21] = target: HLA-B*51:01; experiment: IEDB peptide-MHC binding, purified MHC/competitive/fluorescence; filed as Kd, often an IC50 or EC50 that approximates it; ≥ and ≤ were set here for values at or beyond the usual limits of such assays
[22] = target: HLA-B*35:01; experiment: as above; conditions: source organism: Encephalitozoon cuniculi GB-M1
[23] = target: HLA-B*15:01; experiment: as above; conditions: source organism: Encephalitozoon cuniculi GB-M1
[24] = target: HLA-A*11:01; experiment: IEDB peptide-MHC binding, purified MHC/direct/fluorescence; filed as Kd, often an IC50 or EC50 that approximates it; ≥ and ≤ were set here for values at or beyond the usual limits of such assays
[25] = target: HLA-A*24:03; experiment: as above; conditions: source organism: Influenza A virus (A/swine/Hong Kong/5190/99(H3N2))
[26] = target: HLA-B*15:01; experiment: IEDB peptide-MHC binding, purified MHC/competitive/fluorescence; ≥ and ≤ were set here for values at or beyond the usual limits of such assays; conditions: source organism: Zaire ebolavirus
[27] = source organism: Influenza A virus (A/Hong Kong/507/97(H5N1))
[28] = source organism: Zaire ebolavirus
[29] = source organism: Sudan ebolavirus
[30] = source organism: Encephalitozoon cuniculi GB-M1
[31] = source organism: Shigella flexneri 5 str. 8401
[32] = source organism: Influenza A virus (A/SW/KS/13481-T/00(H1N2))
[33] = source organism: Influenza A virus (A/swine/Hong Kong/5190/99(H3N2))

KSCLPACVY
Kd [1, 27]: 0.211 µM | Kd [2, 27]: ≥ 20 µM | Kd [3, 27]: ≥ 20 µM | Kd [4, 27]: ≥ 20 µM | Kd ([5]; source organism: Influenza A virus(A/swine/Henan/8/2004(H9N2))): ≥ 20 µM | Kd [6, 27]: ≥ 20 µM | Kd [7, 27]: ≥ 20 µM | Kd [8, 27]: ≥ 20 µM | Kd [9]: 0.482 µM | Kd [10, 27]: ≥ 20 µM | Kd [11, 27]: ≥ 20 µM | Kd [12, 27]: ≥ 20 µM | Kd [13, 27]: ≥ 20 µM | Kd [14, 27]: ≥ 20 µM | Kd [15, 27]: ≥ 20 µM

LPFSASIVF
Kd ([16]; source organism: Yersinia pestis CO92): 0.0888 µM

KYLEGHGFR
IC50 [17]: 7.69 µM | IC50 [18, 28]: ≥ 195 µM

RLLNLSGVN
IC50 [19]: 21.9 µM | IC50 [18, 28]: 43.2 µM

HLASTDQLK
IC50 [20, 29]: 13.8 µM | IC50 [18, 29]: 27.1 µM

ILRQNMIAL
Kd [21, 30]: ≥ 20 µM | Kd [22]: 3.18 µM | Kd [23]: 0.188 µM | Kd [16, 30]: 0.201 µM

TPAQLSMLL
Kd [21, 31]: ≥ 20 µM | Kd [16, 31]: 0.215 µM

IMPRDSWLI
Kd ([13]; source organism: Mycobacterium tuberculosis str. Haarlem): ≤ 0.001 µM

HEKGINPNY
Kd [1, 32]: ≥ 20 µM | Kd [2, 32]: ≥ 20 µM | Kd [3, 32]: ≥ 20 µM | Kd [24, 32]: ≥ 20 µM | Kd [5, 32]: ≥ 20 µM | Kd [6, 32]: ≥ 20 µM | Kd [7, 32]: ≥ 20 µM | Kd [8, 32]: ≥ 20 µM | Kd [9]: 0.541 µM | Kd [10, 32]: ≥ 20 µM | Kd [11, 32]: ≥ 20 µM | Kd [12, 32]: ≥ 20 µM | Kd [13, 32]: ≥ 20 µM | Kd [14, 32]: ≥ 20 µM | Kd [15, 32]: ≥ 20 µM

APGWLIWTY
Kd ([16]; source organism: human gammaherpesvirus 4): ≥ 20 µM

GYMFESKSM
Kd [1, 33]: ≥ 20 µM | Kd [2, 33]: ≥ 20 µM | Kd [3, 33]: ≥ 20 µM | Kd [4, 33]: ≥ 20 µM | Kd [24, 33]: ≥ 20 µM | Kd ([5]; source organism: Influenza A virus(A/swine/Henan/5/2004(H9N2))): ≥ 20 µM | Kd [25]: 0.0677 µM | Kd [6, 33]: ≥ 20 µM | Kd [7, 33]: ≥ 20 µM | Kd [8, 33]: ≥ 20 µM | Kd [10, 33]: ≥ 20 µM | Kd [11, 33]: ≥ 20 µM | Kd [12, 33]: ≥ 20 µM | Kd [13, 33]: ≥ 20 µM | Kd [15, 33]: ≥ 20 µM

AITAASLPK
IC50 [20, 28]: 0.368 µM | IC50 [19]: ≥ 281 µM | IC50 [26]: ≥ 183 µM | IC50 [18, 28]: 6.97 µM

YVKQNTLKL
Kd ([16]; source organism: Influenza A virus): 0.0718 µM
